From US20230212319A1, “NOVEL ANTIGEN BINDING DOMAINS AND SYNTHETIC ANTIGEN RECEPTORS INCORPORATING THE SAME” (University of Southern California, priority 2020, published 2023)

B1: 22097 (protein)
chain: MALPVTALLLPLALLLHAARPQLQLQESGPGLVKPSETLSLTCTVSGDSISSGDYYWGWIRQPPGKGLEWIGHIYYSGVTYYNPSLKSRVTISVDTSRNQFSLKLSSVTAADTAVYYCTREDSSNWRSRGQGTLVTVSSLEGQPKANPTVTLFPPSSEELQANKATLVCLISDFYPGAVTVAWKADGSPVKAGVETTKPSKQSNNKYAASSYLSLTPEQWKSHRSYSCQVTHEGSTVEKTVAPTECSGRADCGFTSESYQQGVLSATILYEILLGKATLYAVLVSALVLMAMVKRKDSRGRAKRSGSGATNFSLLKQAGDVEENPGPTSMDWIWRILFLVGAATGAHSFEVQLLESGGGLIQPGGSLRLSCAASGFTFSSHAMTWVRQAPGKGLEWVSAISGSGDYTHYADSVKGRFTISRDNSKNTVYLQMNSLRAEDSAVYYCAKDEDGGSLLGHRGQGTLVTVSSTRASTKGPSVFPLAPSSKSTSGGTAALGCLVKDYFPEPVTVSWNSGALTSGVHTFPAVLQSSGLYSLSSVVTVPSSSLGTQTYICNVNHKPSNTKVDKRVEPKSCIPEDTFFPSPESSCDVKLVEKSFETDTNLNFQNLSVIGFRILLLKVAGFNLLMTLRLWSSRAKRSGSGVKQTLNFDLLKLAGDVESNPGPSRGHMTEYKPTVRLATRDDVPRAVRTLAAAFADYPATRHTVDPDRHIERVTELQELFLTRVGLDIGKVWVADDGAAVAVWTTPESVEAGAVFAEIGPRMAELSGSRLAAQQQMEGLLAPHRPKEPAWFLATVGVSPDHQGKGLGSAVVLPGVEAAERAGVPAFLETSAPRNLPFYERLGFTVTADVEVPEGPRTWCMTRKPGA
B2: 22082 (protein)
chain: MALPVTALLLPLALLLHAARPQLQLQESGPGLVKPSETLSLTCTVSGDSISSGDYYWGWIRQPPGKGLEWIGHIYYSGVTYYNPSLKSRVTISVDTSRNQFSLKLSSVTAADTAVYYCTREDSSNWRSRGQGTLVTVSSLESGGGGSFEQLQLQESGPGLVKPSETLSLTCTVSGGSISSGDYYWGWIRQPPGKGLEWIGHIYYSGATYYNPSLKSRVTISVDTSRNQFSLKLSSVTAADTAVYYCTRDDSSNWRSRGQGTLVTVSSTRASTKGPSVFPLAPSSKSTSGGTAALGCLVKDYFPEPVTVSWNSGALTSGVHTFPAVLQSSGLYSLSSVVTVPSSSLGTQTYICNVNHKPSNTKVDKRVEPKSCIPEDTFFPSPESSCDVKLVEKSFETDTNLNFQNLSVIGFRILLLKVAGFNLLMTLRLWSSRAKRSGSGVKQTLNFDLLKLAGDVESNPGPSRGHMTEYKPTVRLATRDDVPRAVRTLAAAFADYPATRHTVDPDRHIERVTELQELFLTRVGLDIGKVWVADDGAAVAVWTTPESVEAGAVFAEIGPRMAELSGSRLAAQQQMEGLLAPHRPKEPAWFLATVGVSPDHQGKGLGSAVVLPGVEAAERAGVPAFLETSAPRNLPFYERLGFTVTADVEVPEGPRTWCMTRKPGA

Tested on: RAJI cells
Test: JNG assay, co-culture with RAJI cells
Type: cell-based
Conditions: JNG cells expressing construct, co-culture with Raji
In short: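 Jurkat-NFAT-GFP (JNG) cells stably expressing SAR constructs via lentiviral transduction and puromycin/blasticidin selection were cocultured with target cells at E:T ~1:2 for ~4–18 h. NFAT-driven GFP was measured by FACS versus parental JNG cells; scores +/- to 5+ denote ~5–50% GFP-positive cells.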

Row | Molecule | NFAT-GFP ASSAY: Raji
1 | B1 | + (refer to approximately 5%, 10%, 20%, 30%, 40% and 50% GFP positive cells)
2 | B2 | +/- (refer to approximately 5%, 10%, 20%, 30%, 40% and 50% GFP positive cells)
